# According to patent publication US20210002623:
# T1: peptide YFLMNENRYTSWNSE
# T1 chain: YFLMNENRYTSWNSE
# T2: H-Trp-Phe-Tyr-Ser(PO3H2)-Pro-Arg-pNA
# T2 chain: WFYSPR
# Columns and labels:
# peptide YFLMNENRYTSWNSE = target: T1, peptide YFLMNENRYTSWNSE
# [1] = target: T2, H-Trp-Phe-Tyr-Ser(PO3H2)-Pro-Arg-pNA
Protein,"time necessary to hydrolyse 50% of the peptide, at 40 °C (peptide YFLMNENRYTSWNSE)","time necessary to hydrolyse 50% of the peptide, at 20 °C (peptide YFLMNENRYTSWNSE) [h]","time necessary to hydrolyse 50% of the peptide, at 30 °C (peptide YFLMNENRYTSWNSE) [h]","time necessary to hydrolyse 50% of the peptide, at 50 °C (peptide YFLMNENRYTSWNSE) [h]","time necessary to hydrolyse 50% of the peptide, at 60 °C (peptide YFLMNENRYTSWNSE) [h]","time necessary to hydrolyse 50% of the peptide, at 70 °C (peptide YFLMNENRYTSWNSE) [h]","time necessary to hydrolyse 50% of the peptide, at 80 °C (peptide YFLMNENRYTSWNSE) [h]",peptide hydrolysis followed by reverse phase HPLC [1]
PhTET2 (leucyl aminopeptidase of Pyrococcus horikoshii) (protein) MEVRNMVDYELLKKVVEAPGVSGYEFLGIRDVVIEEIKDYVDEVKVDKLGNVIAHKKGEGPKVMIAAHMDQIGLMVTHIEKNGFLRVAPIGGVDPKTLIAQRFKVWIDKGKFIYGVGASVPPHIQKPEDRKKAPDWDQIFIDIGAESKEEAEDMGVKIGTVITWDGRLERLGKHRFVSIAFDDRIAVYTILEVAKQLKDAKADVYFVATVQEEVGLRGARTSAFGIEPDYGFAIDVTIAADIPGTPEHKQVTHLGKGTAIKIMDRSVICHPTIVRWLEELAKKHEIPYQLEILLGGGTDAGAIHLTKAGVPTGALSVPARYIHSNTEVVDERDVDATVELMTKALENIHELKI,"0.5 h for PhTET2 compared to 3,9 h for MjTET at 40 °C",–,–,–,–,–,–,–
"MjTET (TET aminopeptidase of Methanocaldococcus jannaschii, product of gene MJ0555) (protein) MSVVEYLKKLSKLHGISGREDSVREFMKKELEKYCDSVEIDNFGNLIAKRGNKGKKIMIAAHMDEIGLMVKYIDDNGFLKFTKIGGIYDPTILNQKVVVHGSKGDLIGVLGSKPPHRMKEEEKTKIIKYEDMFIDIGAESREEAIEMGVNIGTWVSFLSEVYDLGKNRLTGKAFDDRVGCAVLLEVMKRLSEEDIDCQVYAVGTVQEEVGLKGARVSAFKINPDVAIALDVTIAGDHPGIKKEDAPVDLGKGPVVGIVDASGRGLIAHPKVLDMIKAVSEKYKIDVQWEVGEGGTTDATAIHLTREGIPTGVISVPARYIHTPVEVIDKRDLEKTVELVYNCIKEVNNFF",3.9 h,75,55,1.3,1,0.6,0.25,"After 5 minutes, the original peptide substrate was almost hydrolyzed and four peptide products were detected"
